The values below come from patent US20240317847A1 (Bayer, published 2024).

Positions count from the first letter of the chain named. Names may count otherwise.

The chains are these.
T1: murine IL-11 (mouse, UniProt P47873 22-199)
T1 construct: bought from Invigate; also called mIL-11; mIL11
T1 sequence: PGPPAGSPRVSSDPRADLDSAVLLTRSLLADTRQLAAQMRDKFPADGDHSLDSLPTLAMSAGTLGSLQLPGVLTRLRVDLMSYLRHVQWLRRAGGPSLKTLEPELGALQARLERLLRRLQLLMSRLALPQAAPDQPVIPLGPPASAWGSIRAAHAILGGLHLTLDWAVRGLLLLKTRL

T2: human IL-11 (human, UniProt P20809 22-199)
T2 construct: bought from Invigate; also called hIL-11; hIL11
T2 sequence: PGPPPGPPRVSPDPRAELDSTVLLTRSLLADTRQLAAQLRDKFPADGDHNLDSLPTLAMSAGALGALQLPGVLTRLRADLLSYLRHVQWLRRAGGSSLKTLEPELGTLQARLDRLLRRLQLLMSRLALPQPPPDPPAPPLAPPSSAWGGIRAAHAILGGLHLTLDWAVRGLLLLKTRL

T3: murine IL-11 (Invigate, e.g., lot #C210819-09) (mouse, UniProt P47873 22-199)
T3 construct: Bought protein; biotinylated where captured on streptavidin plates; also called mIL-11; mIL11
T3 sequence: T1 sequence

T4: human IL-11 (Invigate, e.g., lot #C121021-19) (human, UniProt P20809 22-199)
T4 construct: Bought protein; also called hIL-11; hIL11
T4 sequence: T2 sequence

B1: TPP-19841 (antibody, V domains shown)
VH: EVQLLESGGGLVQPGGSLRLSCAASGFTFSSYGMHWVRQAPGKGLEWVSVISYDGSYKYYADSVKGRFTISRDNSKNTLYLQMNSLRAEDTAVYYCAAGVPDYWGQGTLVTVSS
VL: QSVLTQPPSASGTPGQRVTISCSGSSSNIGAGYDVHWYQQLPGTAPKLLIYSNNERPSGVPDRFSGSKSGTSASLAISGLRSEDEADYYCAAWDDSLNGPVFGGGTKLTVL
B2: TPP-19848 (antibody, V domains shown)
VH: B1 VH
VL: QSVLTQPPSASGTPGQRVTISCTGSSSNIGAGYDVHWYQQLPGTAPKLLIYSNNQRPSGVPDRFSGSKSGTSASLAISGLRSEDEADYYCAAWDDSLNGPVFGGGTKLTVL
B3: TPP-19843 (antibody, V domains shown)
VH: B1 VH
VL: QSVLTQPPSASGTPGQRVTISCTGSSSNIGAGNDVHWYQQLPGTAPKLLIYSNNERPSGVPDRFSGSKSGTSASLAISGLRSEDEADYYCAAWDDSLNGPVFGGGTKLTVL
B4: TPP-19866 (antibody, V domains shown)
VH: B1 VH with S56G
VL: QSVLTQPPSASGTPGQRVTISCTGSSSNIGAGYDVHWYQQLPGTAPKLLIYSNNERPSGVPDRFSGSKSGTSASLAISGLRSEDEADYYCAAWDDSLNGPVFGGGTKLTVL
B5: TPP-19862 (antibody, V domains shown)
VH: B1 VH with H35S
VL: B4 VL
B6: TPP-19864 (antibody, V domains shown)
VH: B1 VH with Y53G
VL: B4 VL
B7: TPP-19865 (antibody, V domains shown)
VH: B1 VH with D54S
VL: B4 VL
B8: TPP-19873 (antibody, V domains shown)
VH: B1 VH with Y57N
VL: B4 VL
B9: TPP-19845 (antibody, V domains shown)
VH: B1 VH
VL: B4 VL with H36Y
B10: TPP-19847 (antibody, V domains shown)
VH: B1 VH
VL: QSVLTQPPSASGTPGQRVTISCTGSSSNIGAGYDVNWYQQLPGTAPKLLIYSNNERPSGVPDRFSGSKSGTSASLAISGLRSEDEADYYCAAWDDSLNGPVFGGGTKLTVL
B11: TPP-19842 (antibody, V domains shown)
VH: B1 VH
VL: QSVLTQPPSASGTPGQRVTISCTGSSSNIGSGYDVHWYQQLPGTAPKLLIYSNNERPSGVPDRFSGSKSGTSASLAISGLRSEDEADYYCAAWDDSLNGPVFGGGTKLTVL
B12: TPP-19868 (antibody, V domains shown)
VH: B1 VH with K58T
VL: B4 VL
B13: TPP-19863 (antibody, V domains shown)
VH: B1 VH with V50A
VL: B4 VL
B14: TPP-19874 (antibody, V domains shown)
VH: B1 VH with A98R
VL: B4 VL
B15: TPP-19867 (antibody, V domains shown)
VH: B1 VH with Y57S
VL: B4 VL
B16: TPP-19850 (antibody, V domains shown)
VH: B1 VH
VL: B4 VL with N98S
B17: TPP-19872 (antibody, V domains shown)
VH: B1 VH with S49A
VL: B4 VL
B18: TPP-19861 (antibody, V domains shown)
VH: B1 VH with G33A
VL: B4 VL
B19: TPP-19849 (antibody, V domains shown)
VH: B1 VH
VL: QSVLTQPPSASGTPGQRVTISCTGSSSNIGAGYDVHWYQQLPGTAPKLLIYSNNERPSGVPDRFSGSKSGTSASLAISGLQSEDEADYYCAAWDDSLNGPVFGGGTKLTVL
B20: TPP-31303 (antibody, human IgG4, V domains shown)
VH: EVQLLESGGGLVQPGGSLRLSCAASGFTFSHYDMNWLRQAPGKGLEWVGVISYEGSNKFYADFVKGRFTISRDNSKNTLYLQMNSLRAEDTAVYYCARTPGSHFDYWGQGTLVTVSS
VL: QSVLTQPPSASGTPGQRVTISCSGSSSNIGNNAVNWYQQLPGTAPKLLIYYDDLLPSGVPDRFSGSKSGTSASLAISGLRSEDEADYYCSAWDDSLNAVVFGGGTKLTVL
notes: consecutive numbering; also called VH-D54E / VL-G98A
B21: TPP-31304 (antibody, human IgG4, V domains shown)
VH: B20 VH with E54D, G55A
VL: B20 VL with A98G
notes: consecutive numbering; also called VH-G55A
B22: TPP-31306 (antibody, human IgG4, V domains shown)
VH: B20 VH with E54D, G55A
VL: B20 VL with N97S, A98G
notes: consecutive numbering; also called VH-G55A / VL-N97S
B23: TPP-31308 (antibody, human IgG4, V domains shown)
VH: B20 VH with E54D, G55S
VL: B20 VL with A98G
notes: consecutive numbering; also called VH-G55S
B24: TPP-31311 (antibody, human IgG4, V domains shown)
VH: B20 VH with E54D, G55S
VL: B20 VL
notes: consecutive numbering; also called VH-G55S / VL-G98A
B25: TPP-31309 (antibody, human IgG4, V domains shown)
VH: B20 VH with E54D, G55S
VL: B20 VL with N97Q, A98G
notes: consecutive numbering; also called VH-G55S / VL-N97Q
B26: TPP-31310 (antibody, human IgG4, V domains shown)
VH: B20 VH with E54D, G55S
VL: B20 VL with N97S, A98G
notes: consecutive numbering; also called VH-G55S / VL-N97S
B27: TPP-31307 (antibody, human IgG4, V domains shown)
VH: B20 VH with E54D, G55A
VL: B20 VL
notes: consecutive numbering; also called VH-G55A / VL-G98A
B28: TPP-31305 (antibody, human IgG4, V domains shown)
VH: B20 VH with E54D, G55A
VL: B20 VL with N97Q, A98G
notes: consecutive numbering; also called VH-G55A / VL-N97Q

One experiment addresses T1, murine IL-11. In words: SPR, antibody captured, IL-11 as analyte. The procedure: (§1) Antibodies were captured via anti-mouse Fc IgGs (“Mouse antibody capture kit, Order No. BR100383, Cytiva) covalently amine coupled to a Series S CM5 sensor chip (Cytiva). The amine coupling was carried out according to the manufacturer's instructions using 1-ethyl-3-(3-dimethylaminopropyl) carbodiimide hydrochloride (EDC), N-hydroxysuccinimide (NHS) and ethanolamine HCl, pH 8.5 (“Amine Coupling Kit” BR-1000-50, Cytiva.). Human IL-11 (Invigate, e.g., lot #C121021-19), and murine IL-11 (Invigate, e.g., lot #C210819-09) were used as analytes. […] Based on that experiment an IL-11 concentration range was chosen to optimally determine kinetics and affinity of anti-IL-11 antibodies in multicycle kinetics mode. The sensor surface was regenerated with glycine pH 1.7 after each antigen injection. Obtained sensorgrams were double referenced (subtraction of reference flow cell signal and buffer injection) and were fitted to a 1:1 Langmuir binding model to derive kinetic data using the Biacore T200 Evaluation software or the Biacore Insight software.
(§2) Deviations from closest human germlines in CDR regions and FW regions and potential CMC relevant residues in CDR regions were adjusted by site directed mutagenesis following standard molecular protocols or purchased from DNA synthesis providers. The generated DNA constructs were expressed by transient transfection of mammalian cells and purified as described in Example 15. Antibodies were then tested for human IL-11 and murine IL-11 binding by SPR as described in Example 16.
A general note: SPR reads the build-up and loss of mass on a sensor chip optically.
Broadly, the Kd is the constant that tells how readily two partners part at equilibrium. A low value points to higher affinity. B1: binding was characterised by a dissociation constant (Kd) of 0.79 nM.

For B2, the dissociation constant Kd was 2.4 nM.

As for B3, the affinity, expressed as Kd, was 7.5 nM.

For B4, the Kd was 1.4 nM.

The molecule B5 showed a Kd of 4.7 nM.

Turning to B6, the binding result is reported as “no binding”.

In turn, B7 registered an equilibrium dissociation constant (Kd) of 3.6 nM.

B8 yielded a Kd of 4 nM.

As for B9, binding was put at a Kd of 5 nM.

The molecule B10 returned a Kd of 2.1 nM.

B11 gave a Kd of 0.66 nM.

Take B12: the affinity, expressed as Kd, was 0.72 nM.

B13 gave a Kd of 0.64 nM.

B14 came in with a Kd of 9.9 nM.

B15: the affinity, expressed as Kd, was 3.4 nM.

In turn, B16 yielded a Kd of 1.6 nM.

The molecule B17 had a dissociation constant (Kd) of 0.47 nM.

B18 gave a Kd of 28 nM.

In turn, B19 displayed a Kd of 0.68 nM.

The target in a further experiment is T2, human IL-11. In words: SPR, antibody captured, IL-11 as analyte. As to the method: as §1, §2
As for B1, the affinity, expressed as Kd, was 6.3 nM.

B2 returned a Kd of 52 nM.

Take B3: the Kd came out at 17 nM.

B4 returned an equilibrium dissociation constant (Kd) of 8.5 nM.

As for B5, binding was characterised by a dissociation constant (Kd) of 19 nM.

With B6, the dissociation constant Kd turned out to be 13 nM.

Turning to B7, the dissociation constant Kd is 25 nM.

Take B8: the dissociation constant (Kd) is 21 nM.

On to B9, for which the Kd is 20 nM.

Take B10: the dissociation constant Kd came out at 9 nM.

For B11, the affinity, expressed as Kd, was 7.3 nM.

With B12, the Kd amounted to 6.2 nM.

B13 returned a dissociation constant Kd of 4.7 nM.

Molecule B14 yielded a Kd of 99 nM.

B15 registered a Kd of 27 nM.

In turn, B16 yielded a Kd of 6.5 nM.

Take B17: the Kd worked out at 5.5 nM.

As for B18, the affinity, expressed as Kd, was 17 nM.

In turn, B19 yielded a Kd of 5.9 nM.

The next experiment deals with T3, murine IL-11 (Invigate, e.g., lot …). In words: SPR, Biacore 8K; antibody captured on anti-human IgG Fc chip, IL-11 analyte 0-50 nM, 1:1 fit. The procedure:
(§3) Antibody binding affinity to hIL-11 (Invigate, Germany, e.g., lot #C121021-19) and mIL-11 (Invigate, Germany, e.g., lot #C210819-09) was detected using Biacore 8K. Each antibody was captured on an anti-human IgG Fc antibody immobilized CM5 sensor chip (GE). hIL-11 and mIL-11 at different concentrations (0, 5, 15.82 and 50 nM) in 1×HBS-EP+ (pH 7.4) (GE healthcare) were injected over the sensor chip at a flow rate of 30 μL/min for an association phase of 120 s, followed by 200 s dissociation phase. The chip was then regenerated by 10 mM Glycine, pH 1.5 after each binding cycle.
(§4) The sensorgrams of blank surface and buffer channel were subtracted from the test sensorgrams. The experimental data was fitted by 1:1 model using Langmiur analysis. Molecular weight of 19.3 kDa was used to calculate the molar concentration of human and mouse IL-11.
Turning to B20, binding was put at a Kd of 3.6 nM.

Take B21: the dissociation constant (Kd) stood at 23 nM.

On to B22, for which the Kd is 23 nM.

Take B23: the dissociation constant (Kd) came to 47 nM.

In turn, B24 yielded a dissociation constant (Kd) of 58 nM.

B25 gave a dissociation constant Kd of 53 nM.

The molecule B26 came in with a Kd of 43 nM.

Consider B27, for which the Kd came out at 28 nM.

B28 displayed a Kd of 25 nM.

Another experiment deals with T4, human IL-11 (Invigate, e.g., lot …). The description is as above. The procedure: as §3, §4
As for B20, the Kd was determined as 6.9 nM.

For the molecule B21, the dissociation constant (Kd) stood at 15 nM.

With B22, the Kd turned out to be 15 nM.

Regarding B23, binding was put at a Kd of 40 nM.

B24 gave a Kd of 87 nM.

In the case of B25, the affinity, expressed as Kd, was 41 nM.

In turn, B26 had a dissociation constant (Kd) of 40 nM.

Take B27: the Kd is 31 nM.

With B28, the affinity, expressed as Kd, was 15 nM.
